Literature values in publication PMC5973875.
Like-named read-outs stand apart in the source and are kept apart here.

How the values were obtained:
[1] = molecular target: Protein S (Homo sapiens) (UniProt P07225)
[2] = molecular target: Protein S (Homo sapiens) (UniProt P07225); remark: listed apart in the source

UniProt P07225, sequence (P07225 42-676): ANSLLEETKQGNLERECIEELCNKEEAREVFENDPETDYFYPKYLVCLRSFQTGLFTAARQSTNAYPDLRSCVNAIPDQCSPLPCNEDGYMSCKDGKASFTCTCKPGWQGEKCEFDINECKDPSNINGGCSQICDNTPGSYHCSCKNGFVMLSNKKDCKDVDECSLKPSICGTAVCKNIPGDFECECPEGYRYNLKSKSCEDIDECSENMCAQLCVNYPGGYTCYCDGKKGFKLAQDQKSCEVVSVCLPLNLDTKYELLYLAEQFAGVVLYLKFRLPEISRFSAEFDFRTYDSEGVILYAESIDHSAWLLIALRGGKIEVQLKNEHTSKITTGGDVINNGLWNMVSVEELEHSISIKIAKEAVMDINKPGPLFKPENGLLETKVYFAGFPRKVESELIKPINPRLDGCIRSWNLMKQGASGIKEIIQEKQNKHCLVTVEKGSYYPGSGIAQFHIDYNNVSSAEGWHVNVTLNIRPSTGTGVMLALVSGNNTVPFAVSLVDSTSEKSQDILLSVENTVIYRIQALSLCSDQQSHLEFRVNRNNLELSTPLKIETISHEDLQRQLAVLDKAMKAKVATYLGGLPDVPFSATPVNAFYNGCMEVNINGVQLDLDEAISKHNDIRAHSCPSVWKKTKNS

Factor Va heavy chain (from UniProt P12259)
Kd [1]: 33 nM

C4BP (from UniProt P04003)
Kd [2]: 0.1 nM
